Measured values: article PMC11259132, “Tyrosine phenol-lyase inhibitor quercetin reduces fecal phenol levels in mice” (PNAS Nexus, 2024)

Substrate: N[C@@H](Cc1ccc(O)cc1)C(=O)O
Assay: enzyme kinetics (Km), phenol by LC-MS
Format: biochemical, Morganella morganii
Details: pyridoxal […]'-phosphate (PLP)

B1: Tyrosine phenol-lyase (TPL) (Morganella morganii subsp. morganii KT) (protein)
chain: MMYPAEPYRIKSVETVSMIPREERIKRMKEAGYNTFLLNSKDVYVDLLTDSGTNAMSDKQWAGMMMGDEAYAGSENFFHLERTVQELFGFKHIVPTHQGRGAENLLSSLAIKPGQYVAGNMYFTTTRYHQEKNGATFIDIVRDEAHDAGLDVKFKGNIDIKKLEKLIAEKGAENIAYICLAVTVNLAGGQPVSMANMREVRQLCDKHGIKVFYDATRCVENAYFIKEQEEGFEDVSIKDIVHEMFSYADGCTMSGKKDCLVNIGGFLCMNDDDMFSAARELVVVYEGMPSYGGLAGRDMEAMAIGLREAMQFEYIEHRVKQVRYLGEKLKAAGVPIVEPVGGHAVFLDARRFCPHLTQDEFPAQSLAASIYMETGVRSMERGIISAGRNKETGDHHRPKLETVRLTIPRRVYTYAHMDLVADGIIKLFKHKEDIKGLKFVYEPKQLRFFTARFDYV
notes: recombinant TPL from M. morganii ssp. morganii (JCM1672), pET-15b
B1 gave a Km of 270 µM.
